# Laboratory results from PMC11488477, “TDP-43 Amyloid Fibril Formation via Phase Separation-Related and -Unrelated Pathways” (ACS Chemical Neuroscience, 2024).
# Biological target: the molecule itself
# Assay: thioflavin T fluorescence + negative-stain TEM; protein alone in buffer with ThT, 20 uM (higher at pH 4 and 5), pH 4-7, 0-300 mM NaCl, 1% DMSO, 96-well plate, 30 °C; long-period assays (Figure 5) incubated without shaking; self-assembly into amyloid fibrils
protein,measurement,value
"C-terminal domain of TDP-43 (residues 266-414), wild type (domain or fragment, UniProt Q13148 266-414, looked up, TDP-43, C-terminal domain (intrinsically disordered region), residues 266-414; UniProt entry Q13148; also called TDP-43's IDR; wild-type TDP-43) SNRQLERSGRFGGNPGGFGNQGGFGNSRGGGAGLGNNQGSNMGGGMNFGAFSINPAMMAAAQAALQSSWGMMGMLASQQNQSGPSGNNQNQGNMQREPNQAFGSGNNSYSGSNSGAAIGWGSASNAGSGSGFNGGFGSSMDSKSSGWGM",binding result,binds
